# Measurements from patent US20250327050.
# Changes are numbered by the printed parent chain.
# Legend:
# [1] = tested on: T1, MBP-ZC3H14 full-length wildtype (residues 1-736)
# T1 sequence: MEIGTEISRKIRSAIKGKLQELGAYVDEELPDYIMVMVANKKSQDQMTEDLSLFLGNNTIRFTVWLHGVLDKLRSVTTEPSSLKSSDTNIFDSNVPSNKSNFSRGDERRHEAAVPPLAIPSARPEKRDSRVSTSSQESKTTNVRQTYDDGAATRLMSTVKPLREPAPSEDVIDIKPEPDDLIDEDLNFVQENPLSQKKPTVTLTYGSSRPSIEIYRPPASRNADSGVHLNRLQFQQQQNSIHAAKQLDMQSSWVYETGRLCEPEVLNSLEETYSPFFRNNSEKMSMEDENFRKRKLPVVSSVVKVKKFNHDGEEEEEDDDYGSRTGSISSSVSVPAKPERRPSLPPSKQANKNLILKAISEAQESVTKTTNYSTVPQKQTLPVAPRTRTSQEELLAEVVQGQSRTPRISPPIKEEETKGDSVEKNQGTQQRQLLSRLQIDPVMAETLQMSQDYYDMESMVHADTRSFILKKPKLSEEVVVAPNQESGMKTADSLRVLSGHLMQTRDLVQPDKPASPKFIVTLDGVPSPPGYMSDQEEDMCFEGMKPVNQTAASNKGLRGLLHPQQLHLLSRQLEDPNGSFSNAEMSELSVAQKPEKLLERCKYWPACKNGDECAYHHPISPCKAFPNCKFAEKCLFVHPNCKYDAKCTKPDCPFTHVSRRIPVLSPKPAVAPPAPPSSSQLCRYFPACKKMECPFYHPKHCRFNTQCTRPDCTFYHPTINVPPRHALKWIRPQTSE
# [2] = tested on: T2, MBP-ZC3H14 full-length S475A mutant
# T2 sequence: T1 sequence with S475A
substance,measurement,setting,value
"Cdk13 (694-1039) / Cyclin T1 (1-272, T149E) kinase complex",anti-thiophosphorylation immunoblot,[1],CDK13 directly phosphorylates ZC3H14 WT but not ZC3H14 S475A
same,in vitro kinase assay P32 counts per minute minus time zero,[1],CDK13 directly phosphorylates ZC3H14 WT but not ZC3H14 S475A
same,anti-thiophosphorylation immunoblot,[2],CDK13 directly phosphorylates ZC3H14 WT but not ZC3H14 S475A
same,in vitro kinase assay P32 counts per minute minus time zero,[2],CDK13 directly phosphorylates ZC3H14 WT but not ZC3H14 S475A
